Non-standard residues stand in square brackets, D forms with d. pS = N[C@@H](COP(=O)(O)O)C(=O)O
Assays:
[1] = target: RAD18 peptide 437-452 (Homo sapiens) (UniProt Q9NS91); assay: ITC; details: cited from earlier work
[2] = target: unmodified nucleosome core particle (H2A, H2B, H3.1, H4 and 147 bp Widom 601 DNA) (human) (UniProt P0C0S8); assay: native gel or EMSA; 10 nM nucleosome core particles with rising SLF1^ARD or SLF1^ARD_4A, room temperature, 20 mins; Diamond DNA stain
SLF1 tBRCT, 6-208 = SLF1 tBRCT, 6-208 (UniProt Q9BQI6); assay: thermal melt (SYPRO Orange) of SLF1tBRCT
[3] = target: T1, SLF1^tBRCT (tandem BRCT domain of SLF1, residues 6-208) (human, UniProt Q9BQI6 6-208); assay: thermal melt (SYPRO Orange); 10 μM SLF1^tBRCT proteins with 200 μM RAD18 peptides; 25-95°C; Tm of SLF1^tBRCT; details: both partners purified
T1 construct: SLF1 (SMC5-SMC6 complex localization factor 1), human, tandem BRCT domain, residues 6-208; pHAT4 construct; also called wild-type SLF1^tBRCT; not shown: His-tag, N-terminal, cleaved
T1 sequence (looked up): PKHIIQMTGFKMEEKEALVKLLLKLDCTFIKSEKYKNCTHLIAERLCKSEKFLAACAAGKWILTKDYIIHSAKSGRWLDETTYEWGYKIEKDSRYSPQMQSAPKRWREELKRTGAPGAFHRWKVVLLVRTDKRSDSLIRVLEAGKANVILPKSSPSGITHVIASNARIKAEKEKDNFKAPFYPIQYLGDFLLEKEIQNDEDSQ

SLF1 ARD = target: T2, SLF1 ARD (Homo sapiens, UniProt Q9BQI6 802-934); assay: EMSA; no shift; DNA EMSA: 40 mM Tris pH 7.5, 100 mM KCl, 0.2 mM DTT, 10% glycerol, 20 ug/ml BSA, 10 nM DNA, 4 C 30 min; NCP EMSA: 10 nM NCP, room temperature 20 min; FP: 20 mM; details: protein: recombinant; tags: none (His-tag cleaved by TEV); label: 5' 6-FAM on strand 1; blunt
T2 sequence: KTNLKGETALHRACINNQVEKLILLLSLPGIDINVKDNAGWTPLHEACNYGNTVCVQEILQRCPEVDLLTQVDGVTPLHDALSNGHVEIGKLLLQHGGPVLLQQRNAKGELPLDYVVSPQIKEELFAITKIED

BRCA1 tBRCT = BRCA1 tBRCT (UniProt P38398 1646-1859); assay: EMSA; no interaction observed; DNA EMSA: 40 mM Tris pH 7.5, 100 mM KCl, 0.2 mM DTT, 10% glycerol, 20 ug/ml BSA, 10 nM DNA, 4 C 30 min; NCP EMSA: 10 nM NCP, room temperature 20 min; FP: 20 mM; details: protein: recombinant; tags: N-terminal non-cleavable His-tag; label: 5' 6-FAM on strand 1; blunt
SLF1 tBRCT [4] = target: T3, SLF1 tBRCT (Homo sapiens, UniProt Q9BQI6 6-208); assay: fluorescence polarization; 20 mM Tris pH 8.0, 150 mM NaCl, 5% glycerol, room temperature; DNA EMSA: 40 mM Tris pH 7.5, 100 mM KCl, 0.2 mM DTT, 10% glycerol, 20 ug/ml BSA, 10 nM DNA, 4 C 30 min; NCP EMSA: 10 nM NCP, room temperature 20 min; FP: 20 mM; details: protein: recombinant; tags: none (His-tag cleaved by TEV); label: 5' 6-FAM on strand 1; blunt
T3 sequence: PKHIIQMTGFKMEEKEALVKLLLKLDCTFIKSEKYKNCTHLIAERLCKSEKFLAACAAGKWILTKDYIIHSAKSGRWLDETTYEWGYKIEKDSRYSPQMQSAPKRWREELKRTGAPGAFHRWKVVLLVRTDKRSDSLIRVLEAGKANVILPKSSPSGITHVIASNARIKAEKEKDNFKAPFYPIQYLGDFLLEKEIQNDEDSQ

SLF1 tBRCT T13A = target: T4, SLF1 tBRCT T13A (Homo sapiens, UniProt Q9BQI6 6-208, T13A); assay: thermal melt; 30 uM DNA, 10 uM protein; DNA EMSA: 40 mM Tris pH 7.5, 100 mM KCl, 0.2 mM DTT, 10% glycerol, 20 ug/ml BSA, 10 nM DNA, 4 C 30 min; NCP EMSA: 10 nM NCP, room temperature 20 min; FP: 20 mM; details: protein: recombinant; tags: none (His-tag cleaved by TEV); blunt
T4 sequence: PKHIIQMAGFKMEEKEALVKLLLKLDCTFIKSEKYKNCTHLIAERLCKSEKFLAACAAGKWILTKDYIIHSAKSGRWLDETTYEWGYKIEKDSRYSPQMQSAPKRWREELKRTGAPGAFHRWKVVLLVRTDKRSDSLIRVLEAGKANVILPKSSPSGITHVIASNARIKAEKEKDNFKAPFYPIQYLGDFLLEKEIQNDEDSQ

SLF1 tBRCT K56A = target: T5, SLF1 tBRCT K56A (Homo sapiens, UniProt Q9BQI6 6-208, K56A); assay: as above; details: protein: recombinant; tags: none (His-tag cleaved by TEV); blunt
T5 sequence: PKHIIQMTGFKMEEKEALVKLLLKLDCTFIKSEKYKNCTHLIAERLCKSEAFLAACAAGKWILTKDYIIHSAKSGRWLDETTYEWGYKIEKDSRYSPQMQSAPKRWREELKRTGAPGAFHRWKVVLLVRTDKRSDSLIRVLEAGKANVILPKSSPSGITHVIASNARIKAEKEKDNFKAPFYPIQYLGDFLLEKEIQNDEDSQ

SLF1 tBRCT [5] = target: T3, SLF1 tBRCT; assay: as above; details: protein: recombinant; tags: none (His-tag cleaved by TEV); blunt

SLF1 tBRCT, 6-208, sequence (Q9BQI6 whole entry, looked up, the tested form may be a part): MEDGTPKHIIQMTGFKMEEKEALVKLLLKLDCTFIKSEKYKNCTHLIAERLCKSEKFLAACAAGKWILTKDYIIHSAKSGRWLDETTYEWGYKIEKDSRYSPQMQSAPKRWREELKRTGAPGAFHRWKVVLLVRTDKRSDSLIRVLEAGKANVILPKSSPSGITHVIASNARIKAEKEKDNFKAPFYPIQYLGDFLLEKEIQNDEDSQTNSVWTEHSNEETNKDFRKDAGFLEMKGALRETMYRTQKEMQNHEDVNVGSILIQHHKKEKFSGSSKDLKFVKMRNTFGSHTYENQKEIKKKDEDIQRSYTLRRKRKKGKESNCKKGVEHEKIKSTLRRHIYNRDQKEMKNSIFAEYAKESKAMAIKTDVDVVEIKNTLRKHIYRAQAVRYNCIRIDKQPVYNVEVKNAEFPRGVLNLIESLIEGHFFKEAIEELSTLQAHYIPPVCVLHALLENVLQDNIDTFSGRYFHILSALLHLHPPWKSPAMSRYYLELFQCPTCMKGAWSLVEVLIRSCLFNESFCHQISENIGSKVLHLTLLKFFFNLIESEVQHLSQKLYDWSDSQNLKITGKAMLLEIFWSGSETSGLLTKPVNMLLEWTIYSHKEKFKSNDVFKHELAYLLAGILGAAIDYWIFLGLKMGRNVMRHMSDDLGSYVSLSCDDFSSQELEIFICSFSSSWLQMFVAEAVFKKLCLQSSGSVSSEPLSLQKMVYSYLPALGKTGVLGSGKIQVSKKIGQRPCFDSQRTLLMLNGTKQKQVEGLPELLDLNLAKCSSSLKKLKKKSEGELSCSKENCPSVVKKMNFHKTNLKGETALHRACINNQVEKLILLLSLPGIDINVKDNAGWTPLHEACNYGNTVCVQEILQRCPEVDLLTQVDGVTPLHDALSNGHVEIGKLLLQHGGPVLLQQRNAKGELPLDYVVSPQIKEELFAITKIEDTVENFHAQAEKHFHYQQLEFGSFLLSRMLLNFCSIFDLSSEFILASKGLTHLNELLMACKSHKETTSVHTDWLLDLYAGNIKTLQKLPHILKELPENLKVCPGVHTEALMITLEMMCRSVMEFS
BRCA1 tBRCT, sequence (P38398 1646-1859): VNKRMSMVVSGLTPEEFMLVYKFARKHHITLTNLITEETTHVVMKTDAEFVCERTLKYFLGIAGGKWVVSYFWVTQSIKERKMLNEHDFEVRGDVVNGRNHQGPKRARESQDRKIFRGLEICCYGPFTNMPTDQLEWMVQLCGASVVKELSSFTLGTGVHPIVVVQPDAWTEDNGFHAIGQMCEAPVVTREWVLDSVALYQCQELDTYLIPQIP

For SLF1 tBRCT (from UniProt Q9BQI6), the Kd [1] is given as 12 nM.

With “SLF1^ARD (ankyrin repeat domain of SLF1, residues 802-934), His-tag cleaved (from UniProt Q9BQI6 802-934) (domain or fragment)” the affinity [2] was 1 to 5 µM.

In the case of “RAD18 441-446 (from UniProt Q9NS91) pS442/pS444 peptide”, the “other: ΔTm vs SLF1tBRCT alone” value (SLF1 tBRCT, 6-208; reference: pS442 peptide, sites S444) is reported as “stronger; reference 0.8”, the “other: ΔTm vs SLF1tBRCT alone” value (SLF1 tBRCT, 6-208; reference: pS444 peptide, sites S442) is reported as “stronger; reference 0.4” and the other: ΔTm vs SLF1tBRCT alone (SLF1 tBRCT, 6-208; reference: unphosphorylated peptide SSSSDI, sites S442,S444) is reported as 3.7 °C.

B1: RAD18(442p,444p)^peptide (S(pS)S(pS)DI) (peptide)
peptide: Ac-S[pS]S[pS]DI-NH2
SMILES: CC[C@H](C)[C@H](NC(=O)[C@H](CC(=O)O)NC(=O)[C@H](COP(=O)(O)O)NC(=O)[C@H](CO)NC(=O)[C@H](COP(=O)(O)O)NC(=O)[C@H](CO)NC(C)=O)C(N)=O
notes: RAD18, human, residues S441 to I446; also called double phosphorylated RAD18 peptide; double-phosphorylated hexapeptide; source: synthetic peptide (Biomatik)
Molecule B1 has a ΔTm [3] of 3.7 °C.

B2: 50 bp DNA, 6-FAM (dsDNA)
DNA 1: TAAATGCCAATGCTGCTGATACGTACTCGGACTGATTCGGAACTGTAACG
DNA 2: CGTTACAGTTCCGAATCAGTCCGAGTACGTATCAGCAGCATTGGCATTTA
In the case of B2, the binding result (SLF1 ARD) is reported as “no binding”, the binding result (BRCA1 tBRCT) is reported as “no binding” and the Kd (SLF1 tBRCT [4]) is reported as 430 nM.

B3: 50 bp DNA, unlabelled (dsDNA)
DNA 1: TAAATGCCAATGCTGCTGATACGTACTCGGACTGATTCGGAACTGTAACG
DNA 2: CGTTACAGTTCCGAATCAGTCCGAGTACGTATCAGCAGCATTGGCATTTA
With B3 the binding signal (SLF1 tBRCT T13A) was 6.9 C (delta Tm), the binding signal (SLF1 tBRCT K56A) was 6.4 C (delta Tm) and the binding signal (SLF1 tBRCT [5]) was 7.1 C (delta Tm).

— PMC11551741 (Nucleic Acids Research, 2024)
